Assay results published in publication PMC12774660 (Nucleic Acids Research, 2026).

Biological target: T1, CPSF73 (human, UniProt Q9UKF6 1-684)
T1 sequence: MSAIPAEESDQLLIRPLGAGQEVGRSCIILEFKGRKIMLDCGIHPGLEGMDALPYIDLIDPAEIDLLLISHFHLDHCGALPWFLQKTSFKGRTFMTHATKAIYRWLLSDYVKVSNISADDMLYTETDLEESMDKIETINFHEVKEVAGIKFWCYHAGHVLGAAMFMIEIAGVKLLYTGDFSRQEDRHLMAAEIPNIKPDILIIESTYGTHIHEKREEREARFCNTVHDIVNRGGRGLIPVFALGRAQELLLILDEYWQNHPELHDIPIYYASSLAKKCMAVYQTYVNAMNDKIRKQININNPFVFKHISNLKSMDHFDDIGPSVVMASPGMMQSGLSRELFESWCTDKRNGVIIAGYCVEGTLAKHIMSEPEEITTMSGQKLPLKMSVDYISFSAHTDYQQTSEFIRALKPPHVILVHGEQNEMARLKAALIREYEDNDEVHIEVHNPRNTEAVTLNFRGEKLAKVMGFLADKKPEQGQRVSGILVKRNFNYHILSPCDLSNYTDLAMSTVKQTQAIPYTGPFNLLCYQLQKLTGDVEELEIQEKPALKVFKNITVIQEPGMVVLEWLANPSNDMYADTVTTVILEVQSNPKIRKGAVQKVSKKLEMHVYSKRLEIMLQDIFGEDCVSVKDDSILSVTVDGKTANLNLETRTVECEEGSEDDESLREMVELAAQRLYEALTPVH
Experiment: cell-based or functional assay

cleavage activity of the U7 snRNP with sextuple mutant Lsm11 toward the H2a* substrate, compared to the wild-type, in the absence of SLBP: ~3 fold lower
B1: Lsm11 R109E/I110A/R112E/L113A/R114E/L116A (natural protein, human, UniProt P83369 1-360, looked up)
chain: MEERERGARSAGAGSPARPPSPRLDVSSDSFDPLLALYAPRLPPIPYPNAPCFNNVAEYESFLRTGVRGGGRGRGRARGAAAGSGVPAAPGPSGRTRRRPDAPAPDPEEAQEAERAMVAKEEGDGAAGAGRRGPGRSRKAPRNVLTRMPLHEGSPLGELHRCIREGVKVNVHIRTFKGLRGVCTGFLVAFDKFWNMALTDVDETYRKPVLGKAYERDSSLTLTRLFDRLKLQDSSKKEADSKSAVEDSTLSRYSQTSTWKLASVWGRADTGRGSHKRSRSVPSSLQASAREESRSELSGRTTRTDGSSVGGTFSRATTLSRGQSRKKKRKPKVDYQQVFTRHINQIFIRGENVLLVHLAQ
